Target: T1, GST-GCM1 (Homo sapiens (Human), UniProt Q9NP62)
T1 chain: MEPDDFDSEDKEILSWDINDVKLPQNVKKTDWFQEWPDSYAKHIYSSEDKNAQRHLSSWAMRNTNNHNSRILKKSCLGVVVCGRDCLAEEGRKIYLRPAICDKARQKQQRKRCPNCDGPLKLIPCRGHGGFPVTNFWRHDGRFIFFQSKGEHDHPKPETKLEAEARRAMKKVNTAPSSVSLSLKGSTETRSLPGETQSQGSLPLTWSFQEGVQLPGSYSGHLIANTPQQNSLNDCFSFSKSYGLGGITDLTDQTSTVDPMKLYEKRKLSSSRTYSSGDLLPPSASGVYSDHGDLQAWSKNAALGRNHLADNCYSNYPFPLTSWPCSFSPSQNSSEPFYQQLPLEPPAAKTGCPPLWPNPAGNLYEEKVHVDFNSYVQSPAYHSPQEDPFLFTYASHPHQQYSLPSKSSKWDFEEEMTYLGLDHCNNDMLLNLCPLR
Assay: GST pull-down

binding result: binds
B1: GATA3-FLAG (protein)
chain: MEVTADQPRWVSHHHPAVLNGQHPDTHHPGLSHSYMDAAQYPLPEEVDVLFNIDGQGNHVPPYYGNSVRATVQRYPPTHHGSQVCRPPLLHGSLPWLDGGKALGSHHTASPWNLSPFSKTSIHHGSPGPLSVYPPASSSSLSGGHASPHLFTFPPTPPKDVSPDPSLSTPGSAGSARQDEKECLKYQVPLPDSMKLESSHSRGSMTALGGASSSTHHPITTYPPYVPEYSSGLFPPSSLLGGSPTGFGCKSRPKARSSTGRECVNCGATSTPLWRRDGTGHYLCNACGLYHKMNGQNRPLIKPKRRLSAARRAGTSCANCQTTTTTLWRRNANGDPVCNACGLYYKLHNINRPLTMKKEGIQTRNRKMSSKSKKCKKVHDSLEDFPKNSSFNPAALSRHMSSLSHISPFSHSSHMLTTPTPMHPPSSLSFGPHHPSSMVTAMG

From paper PMC4761948 (2016)
